The supplement of paper PMC9112550, “Optimization of the antimicrobial peptide Bac7 by deep mutational scanning” (BMC Biology, 2022)

test system: Escherichia coli TOP10; test: shrunken log2 fold change of peptide-encoding DNA abundance (4.5 h post-induction vs induction); higher = less antimicrobial activity (less host growth inhibition); settings: time post-induction: 4.5 h; library: site-saturation at positions 5, 18, 19, 20
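Note: peptides expressed intracellularly from a pBAD plasmid library in pooled LB shake-flask culture, induced with 0.3% L-arabinose, DNA abundance read by NGS, three biological replicates, DESeq2 with apeglm shrinkage.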

Sequence | shrunken log2 fold change
RRIRWRPPRLPRPRPRPFWMPRP | -0.235
RRIRERPPRLPRPRPRPYLKPRP | 0.0189
RRIRQRPPRLPRPRPRPYQTPRP | -0.421
RRIRWRPPRLPRPRPRPSYIPRP | -0.715
RRIRRRPPRLPRPRPRPSWYPRP | 0.363
RRIRKRPPRLPRPRPRPIALPRP | 0.0143
RRIRERPPRLPRPRPRPNEVPRP | 0.0321
RRIRFRPPRLPRPRPRPNLIPRP | -0.347
RRIRERPPRLPRPRPRPHSLPRP | -0.0176
RRIRCRPPRLPRPRPRPGGWPRP | 0.656
RRIRDRPPRLPRPRPRPVFAPRP | 0.597
RRIRSRPPRLPRPRPRPWNVPRP | -0.346
RRIRARPPRLPRPRPRPANLPRP | 0.177
RRIRGRPPRLPRPRPRPIQWPRP | 0.325
RRIRERPPRLPRPRPRPVMRPRP | 0.453
RRIRWRPPRLPRPRPRPMFWPRP | 0.324
RRIRPRPPRLPRPRPRPLDHPRP | -0.114
RRIRLRPPRLPRPRPRPADYPRP | -0.0944
RRIRDRPPRLPRPRPRPIIIPRP | -0.153
RRIRIRPPRLPRPRPRPQPNPRP | -0.267
RRIRYRPPRLPRPRPRPLTNPRP | -0.206
RRIRQRPPRLPRPRPRPAYVPRP | -0.0582
RRIRLRPPRLPRPRPRPCCLPRP | -0.293
RRIRERPPRLPRPRPRPHIHPRP | -0.135
RRIRHRPPRLPRPRPRPKWNPRP | -0.206

Sequence | shrunken log2 fold change
RRIRTRPPRLPRPRPRPCCHPRP | -0.0132
RRIRYRPPRLPRPRPRPLATPRP | -0.378
RRIRVRPPRLPRPRPRPQMRPRP | 0.458
RRIRLRPPRLPRPRPRPNFSPRP | -0.00932
RRIRERPPRLPRPRPRPLGRPRP | -0.0894
RRIRGRPPRLPRPRPRPGQPPRP | 0.462
RRIRLRPPRLPRPRPRPVKVPRP | -0.0103
RRIRPRPPRLPRPRPRPDEWPRP | 0.0186
RRIRKRPPRLPRPRPRPTRIPRP | 0.312
RRIRRRPPRLPRPRPRPGYFPRP | -0.209
RRIRARPPRLPRPRPRPGYQPRP | 0.0478
RRIRPRPPRLPRPRPRPVQLPRP | -0.135
RRIRNRPPRLPRPRPRPDCFPRP | -0.306
RRIRWRPPRLPRPRPRPQQFPRP | -0.262
RRIRERPPRLPRPRPRPNAFPRP | -0.568
RRIRWRPPRLPRPRPRPRFVPRP | 0.139
RRIRNRPPRLPRPRPRPWVVPRP | 0.0152
RRIRERPPRLPRPRPRPFVNPRP | -0.561
RRIRDRPPRLPRPRPRPDWAPRP | 0.534
RRIRERPPRLPRPRPRPYRIPRP | -0.0789
RRIRQRPPRLPRPRPRPPIQPRP | -0.164
RRIRLRPPRLPRPRPRPRGDPRP | 0.553
RRIRSRPPRLPRPRPRPGIRPRP | 0.694
RRIRWRPPRLPRPRPRPGTLPRP | -0.0473
RRIRERPPRLPRPRPRPNHVPRP | -0.25

Sequence | shrunken log2 fold change
RRIRKRPPRLPRPRPRPPLLPRP | 0.524
RRIRPRPPRLPRPRPRPLHSPRP | -0.207
RRIRVRPPRLPRPRPRPPAPPRP | 0.794
RRIRMRPPRLPRPRPRPDGHPRP | 0.0101
RRIRMRPPRLPRPRPRPFCHPRP | -0.0129
RRIRKRPPRLPRPRPRPCIRPRP | -0.049
RRIRGRPPRLPRPRPRPMQFPRP | 0.184
RRIRNRPPRLPRPRPRPRKQPRP | 0.215
RRIRGRPPRLPRPRPRPGDTPRP | 0.616
RRIRNRPPRLPRPRPRPMEHPRP | 0.0201
RRIRKRPPRLPRPRPRPQSCPRP | -0.0373
RRIRDRPPRLPRPRPRPYCNPRP | -0.137
RRIRQRPPRLPRPRPRPVDGPRP | -0.13
RRIRLRPPRLPRPRPRPIYHPRP | -0.6
RRIRYRPPRLPRPRPRPMGHPRP | -1.16
RRIRERPPRLPRPRPRPSNQPRP | -0.841
RRIRYRPPRLPRPRPRPSAMPRP | -0.0964
RRIRKRPPRLPRPRPRPIFGPRP | 2.55
RRIRRRPPRLPRPRPRPPTKPRP | 0.52
RRIRMRPPRLPRPRPRPDGDPRP | 0.0211
RRIRHRPPRLPRPRPRPQTFPRP | -0.105
RRIRERPPRLPRPRPRPNPDPRP | -0.2
RRIRGRPPRLPRPRPRPMMQPRP | 1
RRIRGRPPRLPRPRPRPKMCPRP | 0.102
RRIRTRPPRLPRPRPRPTAVPRP | -0.133
